Reference: article PMC2756588

T1: Hse1, P38753
T1 sequence (P38753 208-285, looked up): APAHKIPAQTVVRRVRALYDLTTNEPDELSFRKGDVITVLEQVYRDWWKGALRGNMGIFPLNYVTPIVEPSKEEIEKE

T2: Cyk3, Q07533
T2 sequence (Q07533 1-83, looked up): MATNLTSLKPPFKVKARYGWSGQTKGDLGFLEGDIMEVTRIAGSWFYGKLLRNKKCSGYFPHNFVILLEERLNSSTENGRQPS

T3: Sla1-3, P32790
T3 sequence (P32790 344-424, looked up): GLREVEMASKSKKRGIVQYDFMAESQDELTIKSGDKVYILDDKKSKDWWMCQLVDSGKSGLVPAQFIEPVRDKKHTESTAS

T4: Fus1, P11710
T4 sequence (P11710 432-512, looked up): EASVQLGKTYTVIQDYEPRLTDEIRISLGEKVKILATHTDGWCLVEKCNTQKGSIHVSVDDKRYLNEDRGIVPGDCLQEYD

T5: Cdc25, P04821
T5 sequence (P04821 50-136, looked up): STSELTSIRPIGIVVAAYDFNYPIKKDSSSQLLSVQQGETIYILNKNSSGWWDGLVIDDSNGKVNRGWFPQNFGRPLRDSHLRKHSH

T6: Sla1-2, P32790
T6 sequence (P32790 60-140, looked up): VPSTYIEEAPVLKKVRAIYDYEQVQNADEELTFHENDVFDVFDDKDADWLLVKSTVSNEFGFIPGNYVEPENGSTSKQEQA

T7: Nbp2, Q12163
T7 sequence (Q12163 103-180, looked up): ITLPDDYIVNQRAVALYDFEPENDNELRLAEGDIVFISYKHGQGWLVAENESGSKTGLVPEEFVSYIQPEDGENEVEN

T8: Lsb4, P32793
T8 sequence (P32793 402-468, looked up): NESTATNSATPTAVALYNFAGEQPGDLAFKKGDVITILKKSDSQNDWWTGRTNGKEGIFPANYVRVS

T9: Bud14, P27637
T9 sequence (P27637 247-328, looked up): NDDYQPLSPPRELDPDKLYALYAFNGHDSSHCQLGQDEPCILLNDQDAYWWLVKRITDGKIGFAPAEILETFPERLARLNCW

T10: Boi1, P38041
T10 sequence (P38041 1-86, looked up): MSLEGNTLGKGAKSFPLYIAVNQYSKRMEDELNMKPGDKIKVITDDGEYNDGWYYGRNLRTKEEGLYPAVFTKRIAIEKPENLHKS

T11: Lsb3, P43603
T11 sequence (P43603 385-451, looked up): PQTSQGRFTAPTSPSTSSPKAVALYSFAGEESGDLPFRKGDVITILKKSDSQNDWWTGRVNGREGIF

T12: Myo5, Q04439
T12 sequence (Q04439 1072-1160, looked up): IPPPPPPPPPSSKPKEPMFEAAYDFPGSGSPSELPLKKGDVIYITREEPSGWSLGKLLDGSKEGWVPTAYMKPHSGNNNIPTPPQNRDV

T13: Bzz1-2, P38822
T13 sequence (P38822 568-633, looked up): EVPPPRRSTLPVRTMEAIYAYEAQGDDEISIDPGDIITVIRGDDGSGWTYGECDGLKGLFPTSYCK

T14: Bbc1, P47068
T14 sequence (P47068 1-78, looked up): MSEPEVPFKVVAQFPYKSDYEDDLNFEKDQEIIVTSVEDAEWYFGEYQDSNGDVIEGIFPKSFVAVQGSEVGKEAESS

T15: Hof1, Q05080
T15 sequence (Q05080 590-669, looked up): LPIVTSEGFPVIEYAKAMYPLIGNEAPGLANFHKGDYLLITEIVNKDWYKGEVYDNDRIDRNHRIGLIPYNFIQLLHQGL

T16: Lsb1, P53281
T16 sequence (P53281 45-122, looked up): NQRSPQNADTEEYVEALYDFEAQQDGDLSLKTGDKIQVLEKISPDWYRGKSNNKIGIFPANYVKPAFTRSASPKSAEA

T17: Abp1, P15891
T17 sequence (P15891 535-592, looked up): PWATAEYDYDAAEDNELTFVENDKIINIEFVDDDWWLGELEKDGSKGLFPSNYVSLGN

T18: Bzz1-1, P38822
T18 sequence (P38822 478-572, looked up): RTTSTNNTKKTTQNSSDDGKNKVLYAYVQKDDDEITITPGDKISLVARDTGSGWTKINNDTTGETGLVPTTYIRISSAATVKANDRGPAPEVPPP

T19: Pex13, P80667
T19 sequence (P80667 295-386, looked up): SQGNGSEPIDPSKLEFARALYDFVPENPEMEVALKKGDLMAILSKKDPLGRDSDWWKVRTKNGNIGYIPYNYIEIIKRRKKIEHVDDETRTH

T20: Boi2, P39969
T20 sequence (P39969 32-116, looked up): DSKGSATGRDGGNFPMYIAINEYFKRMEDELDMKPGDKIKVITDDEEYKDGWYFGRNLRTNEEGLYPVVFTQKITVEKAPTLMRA

T21: Pin3, Q06449
T21 sequence (Q06449 53-122, looked up): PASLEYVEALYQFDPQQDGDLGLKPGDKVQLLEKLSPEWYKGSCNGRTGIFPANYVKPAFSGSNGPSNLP


Tests used:
Assay in all cases: SPOT array
Hse1, P38753 = target: T1, Hse1, P38753; conditions: median of control spots 1727
Cyk3, Q07533 = target: T2, Cyk3, Q07533; conditions: median of control spots 1451
Sla1-3, P32790 = target: T3, Sla1-3, P32790; conditions: median of control spots 5475
Fus1, P11710 = target: T4, Fus1, P11710; conditions: median of control spots 1200
Cdc25, P04821 = target: T5, Cdc25, P04821; conditions: median of control spots 969
Sla1-2, P32790 = target: T6, Sla1-2, P32790; conditions: median of control spots 712
Nbp2, Q12163 = target: T7, Nbp2, Q12163; conditions: median of control spots 357
Lsb4, P32793 = target: T8, Lsb4, P32793; conditions: median of control spots 397
Bud14, P27637 = target: T9, Bud14, P27637; conditions: median of control spots 956
Boi1, P38041 = target: T10, Boi1, P38041; conditions: median of control spots 1162
Sho1, P40073 = conditions: median of control spots 1148
Sequence of Sho1, P40073 (P40073 287-367): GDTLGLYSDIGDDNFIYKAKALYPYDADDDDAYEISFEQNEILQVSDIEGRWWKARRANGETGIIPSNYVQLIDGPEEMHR

Lsb3, P43603 = target: T11, Lsb3, P43603; conditions: median of control spots 406
Myo5, Q04439 = target: T12, Myo5, Q04439; conditions: median of control spots 471
Bzz1-2, P38822 = target: T13, Bzz1-2, P38822; conditions: median of control spots 4538
Bbc1, P47068 = target: T14, Bbc1, P47068; conditions: median of control spots 796
Hof1, Q05080 = target: T15, Hof1, Q05080; conditions: median of control spots 4086
Lsb1, P53281 = target: T16, Lsb1, P53281; conditions: median of control spots 388
Myo3, P36006 = conditions: median of control spots 468
Abp1, P15891 = target: T17, Abp1, P15891; conditions: median of control spots 935
GST = conditions: median of control spots 978
Bem1-2, P29366 = conditions: median of control spots 4347
Sequence of Bem1-2, P29366 (P29366 139-227): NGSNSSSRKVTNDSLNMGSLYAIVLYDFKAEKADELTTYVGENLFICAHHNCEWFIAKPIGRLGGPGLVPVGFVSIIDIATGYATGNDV

Bem1-1, P29366 = conditions: median of control spots 4282
Sequence of Bem1-1, P29366 (P29366 55-141): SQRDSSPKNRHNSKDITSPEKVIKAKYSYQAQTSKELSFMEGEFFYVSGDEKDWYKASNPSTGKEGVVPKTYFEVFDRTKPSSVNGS

Bzz1-1, P38822 = target: T18, Bzz1-1, P38822; conditions: median of control spots 4446
Rvs167, P39743 = conditions: median of control spots 2707
Sequence of Rvs167, P39743 (P39743 419-482): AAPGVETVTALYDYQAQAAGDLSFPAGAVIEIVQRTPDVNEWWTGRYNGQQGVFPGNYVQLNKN

Pex13, P80667 = target: T19, Pex13, P80667; conditions: median of control spots 1341
Boi2, P39969 = target: T20, Boi2, P39969; conditions: median of control spots 1161
Pin3, Q06449 = target: T21, Pin3, Q06449; conditions: median of control spots 2171

Binder	SPOT intensity (Hse1, P38753)	SPOT intensity (Cyk3, Q07533)	SPOT intensity (Sla1-3, P32790)	SPOT intensity (Fus1, P11710)	SPOT intensity (Cdc25, P04821)	SPOT intensity (Sla1-2, P32790)	SPOT intensity (Nbp2, Q12163)	SPOT intensity (Lsb4, P32793)	SPOT intensity (Bud14, P27637)	SPOT intensity (Boi1, P38041)	SPOT intensity (Sho1, P40073)	SPOT intensity (Lsb3, P43603)	SPOT intensity (Myo5, Q04439)	SPOT intensity (Bzz1-2, P38822)	SPOT intensity (Bbc1, P47068)	SPOT intensity (Hof1, Q05080)	SPOT intensity (Lsb1, P53281)	SPOT intensity (Myo3, P36006)	SPOT intensity (Abp1, P15891)	SPOT intensity (GST)	other results
RLSRLLLSLPPESFT	59	2	45	81	172	0	42	3	50	7	66	0	0	4	47	89	6	10	57	0	SPOT intensity (Bem1-2, P29366): 11; SPOT intensity (Bem1-1, P29366): 0; SPOT intensity (Bzz1-1, P38822): 0; SPOT intensity (Rvs167, P39743): 0; SPOT intensity (Pex13, P80667): 19; SPOT intensity (Boi2, P39969): 2; SPOT intensity (Pin3, Q06449): 27
QLLNPNRRAPRRPLS	20	1	9	1	16	3	1130	35	11	5	50	43	13	9	158	3	56	168	125	2	SPOT intensity (Bem1-2, P29366): 169; SPOT intensity (Bem1-1, P29366): 0; SPOT intensity (Bzz1-1, P38822): 0; SPOT intensity (Rvs167, P39743): 0; SPOT intensity (Pex13, P80667): 21; SPOT intensity (Boi2, P39969): 2; SPOT intensity (Pin3, Q06449): 30

Further lines, with some results ahead:

SPOT intensity (Hse1, P38753)	SPOT intensity (Cyk3, Q07533)	SPOT intensity (Sla1-3, P32790)	SPOT intensity (Fus1, P11710)	SPOT intensity (Cdc25, P04821)	SPOT intensity (Sla1-2, P32790)	SPOT intensity (Nbp2, Q12163)	SPOT intensity (Lsb4, P32793)	SPOT intensity (Bud14, P27637)	SPOT intensity (Boi1, P38041)	SPOT intensity (Sho1, P40073)	SPOT intensity (Lsb3, P43603)	SPOT intensity (Myo5, Q04439)	SPOT intensity (Bzz1-2, P38822)	SPOT intensity (Bbc1, P47068)	SPOT intensity (Hof1, Q05080)	SPOT intensity (Lsb1, P53281)	SPOT intensity (Myo3, P36006)	SPOT intensity (Abp1, P15891)	SPOT intensity (GST)	Binder	other results
0	0	12	0	3	0	139	1	0	0	0	0	126	0	56	0	0	277	9	0	APKREAPKPPANTSP	SPOT intensity (Bem1-2, P29366): 0; SPOT intensity (Bem1-1, P29366): 0; SPOT intensity (Bzz1-1, P38822): 10; SPOT intensity (Rvs167, P39743): 0; SPOT intensity (Pex13, P80667): 7; SPOT intensity (Boi2, P39969): 0; SPOT intensity (Pin3, Q06449): 2
0	1	0	0	0	0	281	2	0	1	0	0	262	4	7	0	0	497	0	0	PELAPKREAPKPPAN	SPOT intensity (Bem1-2, P29366): 1; SPOT intensity (Bem1-1, P29366): 0; SPOT intensity (Bzz1-1, P38822): 4; SPOT intensity (Rvs167, P39743): 0; SPOT intensity (Pex13, P80667): 0; SPOT intensity (Boi2, P39969): 1; SPOT intensity (Pin3, Q06449): 0
